Source: US20250034269A1 (Hoffmann-La Roche, published 2025)

What was measured:
[1] = target: T1, monomeric murine LTBR ECD (S28-L223) Fc fusion avi biotinylated (P1AE4410) (mouse, UniProt P0DOX5 223-449 = IgG part, biotinylated avi tag); test: SPR
T1 construct: also called mu LTBR

[2] = target: human LTBR on cells (human, UniProt P36941 31-435); test: cell-based or functional assay
[3] = target: T2, dimeric human LTBR-Fc biotinylated (P1AE2401) (human, UniProt P36941 31-227, biotinylated in vitro); test: competition ELISA vs human LIGHT
T2 construct: bought from R&D Systems (7538-LR); also called human LTBR ECD; not shown: human IgG1 Fc-Fragment

[4] = target: T2, dimeric human LTBR-Fc biotinylated …; test: competition ELISA vs lymphotoxin α1β2 (P1AE1235)
[5] = target: T3, human LTBR ECD (S28-M227) N- and C-terminally extended-Fc-fusion wt kih HRYF-Avi-His biotinylated (P1AE7979) (human, UniProt P0DOX5 223-449 = IgG part, biotinylated avi tag); test: SPR, IgG captured;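 note: rate constants and KD obtained by fitting double-referenced sensorgrams to a 1:1 Langmuir binding model, with dissociation followed for 600 s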
T3 construct: also called hu LTBR

[6] = target: T4, monomeric cynomolgus LTBR ECD (S28-M227) Fc fusion avi biotinylated (P1AE4411) (cynomolgus, UniProt P0DOX5 223-449 = IgG part, biotinylated avi tag); test: SPR, IgG captured;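 note: rate constants and KD obtained by fitting double-referenced sensorgrams to a 1:1 Langmuir binding model, with dissociation followed for 600 s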
T4 construct: also called cyno LTBR

[7] = target: T2, dimeric human LTBR-Fc biotinylated …; test: direct ELISA
[8] = target: T5, dimeric murine LTBR-Fc disulfide-linked homodimer biotinylated (P1AE2655) (mouse; human, UniProt P50284 31-223, biotinylated in vitro); test: direct ELISA
T5 construct: also called murine LTBR ECD; not shown: human IgG1 Fc-Fragment

[9] = target: monomeric N-terminal cynomolgus LTbR (ECD full length) hu IgG1 Fc-fusion kih HRYF avi biotinylated (P1AE2656) (cynomolgus, UniProt P0DOX5 223-449 = IgG part, biotinylated avi tag); test: direct ELISA

B1: P1AE9450 (antibody, human IgG1, kappa, L234A L235A, V domains shown)
VH: EVQLLESGGGLVQPGGSLRLSCAASGFTVSSYVMKWFRQAPGKGLEWVSSISGSGGRPFYADSVKGRFTISRDNSKNALYLQMNSLRAEDTAVYYCANDMDVWGQGTTVTVSS
VL: DIQMTQSPSSLSASVGDRVTITCRASQDISSFLKWYQQKPGKAPTLLIYAASALQSGVPSRFSGSGSGTDFTLTISSLQPEDFATYYCQQYNTYPLTFGGGTKVDIKR
notes: human IgG1 PG LALA; from transgenic rabbit immunization; also called LTBR (9450)
binding result [1]: no binding (tested: 300 nM)
NFκB luc, 0.91 ng/ml, w/o x linker [2]: 14100 RLU
NFκB luc, 0.91 ng/ml, with x linker [2]: 16600 RLU
NFκB luc, 3.66 ng/ml, w/o x linker [2]: 14400 RLU
NFκB luc, 3.66 ng/ml, with x linker [2]: 20100 RLU
NFκB luc, 14.64 ng/ml, w/o x linker [2]: 14700 RLU
NFκB luc, 14.64 ng/ml, with x linker [2]: 24600 RLU
NFκB luc, 58.59 ng/ml, w/o x linker [2]: 16900 RLU
NFκB luc, 58.59 ng/ml, with x linker [2]: 24100 RLU
NFκB luc, 234.4 ng/ml, w/o x linker [2]: 18100 RLU
NFκB luc, 234.4 ng/ml, with x linker [2]: 30500 RLU
NFκB luc, 937.5 ng/ml, w/o x linker [2]: 17900 RLU
NFκB luc, 937.5 ng/ml, with x linker [2]: 30100 RLU
NFκB luc, 3750 ng/ml, w/o x linker [2]: 17300 RLU
NFκB luc, 3750 ng/ml, with x linker [2]: 28900 RLU
NFκB luc, 15000 ng/ml, w/o x linker [2]: 19100 RLU
NFκB luc, 15000 ng/ml, with x linker [2]: 23800 RLU
rel. fit bottom (OD) [3]: 0.4 OD
rel. fit bottom (OD) [4]: 0.5 OD
binding result [5]: binds
binding result [6]: binds
EC50 [7]: 3.8 nM
max. binding (OD) [7]: 2.77 OD
max. binding (OD) [8]: 0.235 OD
EC50 [9]: 4.02 nM
max. binding (OD) [9]: 3.18 OD
